Reference: patent publication US20210206813

Columns and labels:
[1] = target: MidT substrate domain fused to the omega subunit of RNA polymerase
[2] = target: p130cas substrate domain fused to the omega subunit of RNA polymerase

| Protein | luminescence (LuxAB), bacterial two-hybrid system with induced Src [1] | luminescence (LuxAB), bacterial two-hybrid system with induced Src [2] | difference in luminescence between systems containing PTP1B or PTP1B (C215S) [1] |
| --- | --- | --- | --- |
| Src kinase (protein) MSKPQTQGLAKDAWEIPRESLRLEVKLGQGCFGEVWMGTWNGTTRVAIKTLKPGTMSPEAFLQEAQVMKKLRHEKLVQLYAVVSEEPIYIVTEYMSKGSLLDFLKGETGKYLRLPQLVDMAAQIASGMAYVERMNYVHRDLRAANILVGENLVCKVADFGLARLIEDNEYTARQGAKFPIKWTAPEAALYGRFTIKSDVWSFGILLTELTTKGRVPYPGMVNREVLDQVERGYRMPCPPECPESLHDLMCQCWRKEPEERPTFEYLQAFLEDYFTSTEPQYQPGENL | luminescence increased most prominently for p130cas and MidT | luminescence increased most prominently for p130cas and MidT | – |
| protein tyrosine phosphatase 1B (PTP1B) (protein) MEMEKEFEQIDKSGSWAAIYQDIRHEASDFPCRVAKLPKNKNRNRYRDVSPFDHSRIKLHQEDNDYINASLIKMEEAQRSYILTQGPLPNTCGHFWEMVWEQKSRGVVMLNRVMEKGSLKCAQYWPQKEEKEMIFEDTNLKLTLISEDIKSYYTVRQLELENLTTQETREILHFHYTTWPDFGVPESPASFLNFLFKVRESGSLSPEHGPVVVHSSAGIGRSGTFCLADTCLLLMDKRKDPSSVDIKKVLLEMRKFRMGLIQTADQLRFSYLAVIEGAKFIMGDSSVQDQWKELSHEDLEPPPEHIPPPPRPPKRILEPHN | – | – | The difference in luminescence between systems containing PTP1B or PTP1B (C215S) was greatest for MidT |
